{
  "source": "patent US20240425589A1",
  "about": "“CYTOTOXICITY-INDUCING THERAPEUTIC AGENT FOR USE IN TREATMENT OF CANCER” (CHUGAI SEIYAKU KABUSHIKI KAISHA, priority 2021, published 2024)",
  "molecules": {"B1": {"name": "PPU4135: anti-CLDN6/Dual-Fab tri-specific antibody, chains SEQ ID NOs 42, 51, 56, 69; CS4135 same antibody (protein)", "chain 1": "QVQLVESGGGVVQPGGSLRLSCAASGFTFSSYTMSWVRQAPGQGLEWMGTISSGGGRTYYPDSVKGRFTISRDNSKNTLYLQMNSLRDEDTAVYYCARGDYRYDGFAYWGEGTLVTVSSASTKGPSVFPLAPSSKSTSGGTAALGCLVEDYFPEPVTVSWNSGALTSGVHTFPAVLESSGLYSLSSVVTVPSSSLGTQTYICNVNHKPSNTKVDKRVEPKSCDKTHTCPPCPAPEAAGGPSVFLFPPKPKDTLMISRTPEVTCVVVDVSHEDPEVKFNWYVDGVEVHNAKTKPREEQYASTYRVVSVLTVLHQDWLNGKEYKCKVSNKALPAPIEKTISKAKGQPREPQVYTLPPSREEMTKNQVSLTCLVKGFYPSDIAVEWESNGQPENNYKTTPPVLDSDGSFFLYSKLTVDKSRWQQGNVFSCSVMHEALHNHYTQESLSLSP", "chain 2": "DIQMTQSPSSLSASVGDRVTITCRASYNIDSYLAWYQQKPGKAPELLIYYSTLLVDGVPDRFSGSRSGTDFTLTISSLQPEDFATYYCQHYYSIPYTFGQGTKVEIERTVAAPSVFIFPPSDEQLKSGTAKVVCLLNNFYPREAKVQWKVDNALQSGNSKESVTEQDSKDSTYSLSSTLTLSKADYEKHKVYACEVTHQGLSSPVTKSFNRGEC", "chain 3": "QVQLVESGGGLVQPGRSLRLSCAASGFKFSNVWFHWVRQAPGKGLEWVAQIKDYYNAYAAYYAPSVKGRFTISRDDSKNSIYLQMNSLKTEDTAVYYCHYVHYASASTLLPAEGVDAWGQGTTVTVSSASTKGPSVFPLAPSSKSTSGGTAALGCLVKDYFPEPVTVSWNSGALTSGVHTFPAVLKSSGLYSLSSVVTVPSSSLGTQTYICNVNHKPSNTKVDKRVEPKSCDKTHTCPPCPAPEAAGGPSVFLFPPKPKDTLMISRTPEVTCVVVDVSHEDPEVKFNWYVDGVEVHNAKTKPREEQYASTYRVVSVLTVLHQDWLNGKEYKCKVSNKALPAPIEKTISKAKGQPREPQVYTLPPSRKEMTKNQVSLTCLVKGFYPSDIAVEWESNGQPENNYKTTPPVLDSDGSFFLYSKLTVDKSRWQQGNVFSCSVMHEALHNHYTQKSLSLSP", "chain 4": "DIVMTQSPLSLPVTPGEPASISCQPSQEVVHMNRNTYLHWYQQKPGQAPRLLIYKVSNRFPGVPDRFSGSGSGTDFTLKISRVEAEDVGVYYCAQGTSHPFTFGQGTKLEIKRTVAAPSVFIFPPSDEQLKSGTAEVVCLLNNFYPREAKVQWKVDNALQSGNSEESVTEQDSKDSTYSLSSTLTLSKADYEKHKVYACEVTHQGLSSPVTKSFNRGEC"}},
  "key": {"UWB1.289": {"system": "UWB1.289", "test": "LDH release cytotoxicity on olaparib-treated UWB1.289", "format": "cell-based", "settings": "UWB1.289, olaparib 3 μM three days vs DMSO, human PBMC", "procedure": "The effect of the enhanced induction of CLDN6 expression in BRCA1-deficient ovarian cancer cell line UWB1.289, caused by the PARP inhibitor (olaparib), on the cytotoxic activity of anti-CLDN6/Dual-Fab tri-specific antibody CS4135 was assessed.\nBRCA1-deficient ovarian cancer cell line UWB1.289 (ATCC) or BRAC1 wildtype ovarian cancer cell line OV-90 (ATCC) which express human CLDN6 were used as target cells.\nEach target cell (3×10^5 cells) were seeded at 5 mL into a 25 cm^2-flask. Two flasks were prepared for each target cell. After culturing overnight, olaparib was added at a final concentration of 3 μM to one of the two flasks. DMSO was added to the other flask. After incubating the flasks for three days, the target cells were recovered, and the cytotoxic activity of the CS4135 antibody was evaluated by […] (LDH) release assay using human PBMC as the effector cell."}, "recombinant human CD137": {"target": "T1, recombinant human CD137 (Homo sapiens, UniProt Q07011)", "T1 construct": "made in house; host or cells: FreeStyle293F", "T1 sequence (Q07011 with tags, fused parts or gaps)": "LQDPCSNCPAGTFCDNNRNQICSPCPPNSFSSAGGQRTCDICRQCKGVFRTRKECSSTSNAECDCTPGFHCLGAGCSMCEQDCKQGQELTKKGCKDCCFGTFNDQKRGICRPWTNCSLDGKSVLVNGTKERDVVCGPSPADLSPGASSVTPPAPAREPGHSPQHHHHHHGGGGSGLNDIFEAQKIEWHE", "test": "Biacore 8K SPR affinity to human CD137", "format": "binding", "settings": "human CD137, 37 degree C, pH 7.4", "procedure": "The binding affinity of the anti-CLDN6/Dual-Fab tri-specific antibody against recombinant human and cyno CD3eg (gamma and epsilon subunits of CD3) at pH 7.4 was determined at 25 degree C. using Biacore 8K instrument (GE Healthcare). The binding affinity of the anti-CLDN6/Dual-Fab tri-specific antibody against recombinant human and cyno CD137 at pH 7.4 was determined at 37 degree C. using Biacore 8K instrument (GE Healthcare). Anti-human Fc (GE Healthcare) antibody was immobilized onto all flow cells of a CM4 sensor chip using amine coupling kit (GE Healthcare). Tested antibody and analytes were prepared in ACES pH 7.4 containing 20 mM ACES, 150 mM NaCl, 0.05% Tween 20, 0.005% NaN3. Anti-CLDN6/Dual-Fab tri-specific antibody was captured onto the sensor surface by anti-human Fc. Antibody capture levels were aimed at 300 resonance unit (RU). Recombinant CD3eg and CD137 were injected at both 500 and 2000 nM, followed by dissociation. Sensor surface was regenerated each cycle with 3M MgCl2. […] Binding affinities were determined by processing and fitting the data to 1:1 binding model using Biacore Insight Evaluation software (GE Healthcare)."}, "[1]": {"test": "Single dose toxicology study", "format": "in vivo, cynomolgus monkey", "procedure": "Potential toxicity of PPU4135 antibody (anti-CLDN6/Dual-Fab tri-specific antibody) was evaluated in toxicity study using cynomolgus monkeys compared with CS3348 antibody (anti-CLDN6/CD3 bispecific antibody). Because both PPU4135 and CS3348 antibodies cross-reacted with their antigens of cynomolgus monkey, cynomolgus monkey was selected as the animal species for evaluations in the in vivo toxicology studies. Since toxicological findings seemed to be more sensitive in male than female animals in the toxicity study with CS3348 (FIG. 14), 2 males were used for evaluation of the PPU4135-mediated toxicity. In these studies, dose levels were set at 100 (for CS3348) or 90 (for PPU4135) micro g/kg, which were approximately 2.57-fold efficacious concentration producing 80% of the maximal response."}, "CLDN6-LLC1": {"system": "CLDN6-LLC1", "test": "CLDN6-LLC1 syngenic model, CS4135 single agent", "format": "in vivo, hCD137 KI/hCD3Tg mice", "procedure": "In this test, lung cancer cell line LLC1 forced to express claudin 6 (CLDN6) (CLDN6-LLC1) and hCD137 KI/hCD3Tg mice (described in the above-mentioned Example 7) were used. The CLDN6-LLC1 cell line was transplanted subcutaneously to the right flank of the mice, and the mice were divided into groups 7 days after transplantation. Individuals whose tumor volume reached 262 to 353 mm^3 were divided into groups. The vehicle and CS4135 were administered into the mouse tail vein 8 days after transplantation. PBS containing 0.05% Tween-20 was used as the vehicle.\nTumor volume was measured 7, 10, and 14 days after transplantation, and the average tumor volume was indicated for each group. The tumor volume was calculated by the following equation: […]\nTumor Growth Inhibition (TGI) was calculated by the following equation: […]\nThe resected tumor tissue was weighed, and then a lymphocyte fraction was isolated. The lymphocyte fraction obtained by tissue disruption using a Tumor Dissociation Kit, mouse (Miltenyi Biotec) and then by use of a cell strainer was used. The obtained tumor-derived lymphocyte fraction was subjected to flow cytometry (FCM) analysis.\nFCM was used to analyze the number of tumor-derived T cells. The number of CD8-positive T cells per tumor weight was calculated using the tumor weight value and the number of CD8-positive T cells according to FCM. […]"}, "MC38/CLDN6": {"system": "MC38/CLDN6", "test": "xCELLigence mechanism assay with KLH/CD137 bispecific antibody", "format": "cell-based, mouse", "settings": "1 nM", "procedure": "The mechanism of T-cell dependent growth inhibition mediated by the anti-CLDN6/Dual-Fab tri-specific antibodies was assessed by cell proliferation assay using an xCELLigence RTCA MP instrument (ACEA Biosciences).\nMouse colon cancer cell line MC38/CLDN6 expressing human CLDN6 was used as target cells. Spleens were collected aseptically from hCD3 transgenic mice and hCD3/hCD137 knock-in mice. The spleen was ground in RPMI-1640 medium containing 10% FBS, passed through a 70-μm cell strainer, and then centrifuged (at 1200 rpm for 10 minutes at room temperature) to isolate spleen cells. The isolated spleen cells were hemolyzed, then T cells alone were isolated using CD3 MicroBeads (Miltenyi Biotec), and used as effector cells.\nThe background was measured by adding the culture medium to an E-Plate 96 plate (Roche Diagnostics) at 50 μL/well, and then 5×10^3 target cells were plated at 50 μL/well. After culturing overnight, 1 nM (final concentration) of CS4135 together with the KLH/CD137 bispecific antibody at a concentration selected from 100 nM or 500 nM (final concentration) were added at 25 μL/well, respectively. […] Cell growth was monitored every 10 min using xCELLigence over 48 hours during the incubation of the plates. The rate of cell growth inhibition (CGI: %) was determined from the cell index value according to the following formula: […]"}},
  "data": [
    {"molecule": "B1", "values": [
      {"measurement": "cytotoxic activity after addition of olaparib", "setting": "UWB1.289", "value": "enhancement of cytotoxicity"},
      {"measurement": "ka", "setting": "recombinant human CD137", "value": 12600, "unit": "M⁻¹ s⁻¹"},
      {"measurement": "kd", "setting": "recombinant human CD137", "value": 0.000591, "unit": "s⁻¹"},
      {"measurement": "hepatobiliary damage parameters and inflammatory marker elevations", "setting": "[1]; PPU4135 90 micro g/kg compared with CS3348 100 micro g/kg", "value": "dramatically mitigated"},
      {"measurement": "AST, ALT, GLDH, ALP, TBIL, GGT, TBA and CRP", "setting": "[1]; male animals, after single IV administration", "value": "Increased"},
      {"measurement": "plasma exposure levels", "setting": "[1]; male animals, until Day 8, PPU4135 90 vs CS3348 100 micro g/kg single IV", "value": "comparable"},
      {"measurement": "Tumor growth inhibition: TGI", "setting": "CLDN6-LLC1; 14 days after transplantation, 0.25 mg/kg iv day 8", "value": 71, "unit": "%"},
      {"measurement": "number of CD8-positive T cells per tumor weight", "setting": "CLDN6-LLC1; 14 days after tumor transplantation (Day 6 after administration), 0.25 mg/kg", "value": "significant increase"},
      {"measurement": "cell growth inhibition rate", "setting": "MC38/CLDN6; T cells from hCD3/hCD137 knock-in mice vs hCD3 transgenic mice, no KLH/CD137 bispecific antibody", "value": "significantly higher"},
      {"measurement": "cell growth inhibition rate", "setting": "MC38/CLDN6; hCD3/hCD137 knock-in T cells, 500 nM KLH/CD137 bispecific antibody added", "value": "decreased to the same level as when using hCD3 transgenic mice-derived T cells"}
    ]}
  ]
}
